Test results taken from patent publication US20260008815A1, “CYCLIC PEPTIDE OR SALT THEREOF, AND USES THEREOF” (FUJIFILM Corporation, priority 2023, published 2026).
Bridge positions count the residues as written; N and C are the ends. Ends that are not written are not given here. COCH2 = acetyl group that carries the bridge

Key:
bovine myoblasts = experiment: Bovine myoblast proliferation-promoting effect; format: cell-based, Japanese Black cattle; details: of 30 ng/mL bFGF (=100, negative control =0); 0.03 to 10 nmol/L complex, 4 days
Experimental: The bovine cells (myoblasts) proliferation-promoting effect of the cyclic peptide complex was evaluated.
Bovine myoblasts were separated from bovine muscle tissue by the following method. First, muscle tissue of Japanese Black cattle was finely chopped in HBSS (−) (phenol red-free) (FUJIFILM Wako Pure Chemical Corporation, 085-09355), and then pronase from Streptomyces griseus (Sigma-Aldrich, 10165921001) was added thereto to a final concentration of 1 mg/mL, and the mixture was allowed to stand at 37° C. for 1 hour. After allowing to stand, HBSS containing 10% FBS was added thereto, and the cells were acquired by centrifugation. The acquired cells were suspended in D-MEM (high glucose) (containing L-glutamine and phenol red) (FUJIFILM Wako Pure Chemical Corporation, 044-29765) containing 10% final concentration of bovine serum and 30 ng/mL bFGF. Suspended cells were cultured in a culture flask coated with an iMatrix-511 solution (FUJIFILM Wako Pure Chemical Corporation, 381-07363) at 0.55 μg/cm^2. […]
The evaluation of the proliferation-promoting effect on bovine myoblasts was performed by the following method. […] The number of viable cells was calculated from the imaging data and normalized by setting the number of viable cells in the well to which 30 ng/mL bFGF was added to 100, and setting the number of viable cells in the negative control well to 0.

[1] = Molecular stability after alkali treatment, LC; format: physicochemical; details: 0.5 mol/L sodium hydroxide aqueous solution added, room temperature, 3 hours
Experimental: In addition, the stability of the cyclic peptide (SEQ ID NO: 450) containing a cysteine residue in the cyclized portion and the cyclic peptide (SEQ ID NO: 442) containing a homocysteine residue in the cyclized portion was compared under the following alkali treatment, which is a more severe condition.
The alkali treatment was performed by the following method. 25 μL of a 0.2 mg/ml cyclic peptide aqueous solution was prepared, 58.8 μL of a 0.5 mol/L sodium hydroxide aqueous solution was added to the aqueous solution, and the mixture was incubated at room temperature for 3 hours to obtain an aqueous solution of the cyclic peptide alkali-treated. The total area of all the peaks in LC/MS of the cyclic peptide before the alkali treatment was set to 100%, and the proportion of the total area of all the peaks in LC/MS of the aqueous solution of the cyclic peptide alkali-treated was determined to calculate the residual rate of the cyclic peptide.
The LC conditions used for the evaluation of molecular stability are the same as those in the measurement of the above-described cyclic peptide treated with a reducing agent.

[2] = biological target: T1, FGFR2 Protein, Human, Recombinant (His Tag) (Sino Biological, 10824-H08H) (human, UniProt P21802 22-377); experiment: SPR, 1 umol/L FGFR over immobilized peptide
T1 construct: bought; not shown: His tag
T1 sequence (P21802 22-377 limits assumed): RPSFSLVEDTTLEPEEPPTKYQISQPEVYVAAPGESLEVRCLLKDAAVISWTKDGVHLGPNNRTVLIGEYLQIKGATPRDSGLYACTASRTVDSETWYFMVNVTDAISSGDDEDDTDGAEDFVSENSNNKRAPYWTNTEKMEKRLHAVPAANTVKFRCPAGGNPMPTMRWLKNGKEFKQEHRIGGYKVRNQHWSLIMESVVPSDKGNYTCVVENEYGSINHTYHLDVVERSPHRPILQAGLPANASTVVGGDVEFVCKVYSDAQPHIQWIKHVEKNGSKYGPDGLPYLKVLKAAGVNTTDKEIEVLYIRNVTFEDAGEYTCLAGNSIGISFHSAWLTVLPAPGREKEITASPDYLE
Experimental: (§1) Next, 70 μL of a mixed aqueous solution of 0.2 mol/L 1-(3-dimethylaminopropyl)-3-ethylcarbodiimide (EDC) and 0.05 mol/L N-hydroxysuccinimide (NHS) was added to activate the sensor chip. Then, a cyclic peptide prepared to 2 mg/mL in HBS-EP buffer was added thereto to perform immobilization at about 200 RU. Thereafter, the blocking treatment was performed with an ethanolamine solution. In addition, in another flow channel of the same sensor chip, blocking treatment was performed immediately after activation without immobilizing FGFR.
(§2) After various FGFRs (FGFR1 Protein, Human, Recombinant (His Tag) (Sino Biological, 10616-H08H), FGFR2 Protein, Human, Recombinant (His Tag) (Sino Biological, 10824-H08H), FGFR3 Protein, Human, Recombinant (ECD, His Tag) (Sino Biological, 16044-H08H), FGFR4 Protein, Human, Recombinant (His Tag) (Sino Biological, 10538-H08H)) diluted with HBS-EP to 1 μmol/L at 25° C. was added to each flow channel of the cyclic peptide-immobilized sensor chip prepared above, for 10 minutes, HBS-EP was allowed to flow as a running buffer for 30 minutes, and the binding of various FGFRs to the cyclic peptide was measured. Thereafter, a regeneration treatment of removing the bound FGFR was performed by repeating the flow of a regeneration liquid in which sodium chloride (final concentration: 0.4 mol/L) and a sodium dodecyl sulfate aqueous solution (mixed concentration: 1%, final concentration: 0.2%) were dissolved in Glysine 1.5 (Cytiva, BR100354) for 1 minute in each flow channel twice. The binding amount of the cyclic peptide was evaluated from the difference between the measured value of Biacore-T200 in the flow channel in which the cyclic peptide was immobilized and the measured value of Biacore-T200 in the flow channel in which the cyclic peptide was not immobilized, in a case where 1 μmol/L FGFR was allowed to flow.
(§3) The binding amount of FGFR evaluated above was normalized to the binding amount of FGFR molecules per one molecule of the cyclic peptide using the molecular weights of the cyclic peptide and FGFR, and the binding affinity to FGFR was evaluated according to the following evaluation criteria. The evaluation result preferably satisfies the evaluation criteria A, B, or C.

[3] = biological target: T2, FGFR1 Protein, Human, Recombinant (His Tag) (Sino Biological, 10616-H08H) (human, UniProt P11362 22-376); experiment: SPR, 1 umol/L FGFR over immobilized peptide
T2 construct: bought; not shown: His tag
T2 sequence (looked up): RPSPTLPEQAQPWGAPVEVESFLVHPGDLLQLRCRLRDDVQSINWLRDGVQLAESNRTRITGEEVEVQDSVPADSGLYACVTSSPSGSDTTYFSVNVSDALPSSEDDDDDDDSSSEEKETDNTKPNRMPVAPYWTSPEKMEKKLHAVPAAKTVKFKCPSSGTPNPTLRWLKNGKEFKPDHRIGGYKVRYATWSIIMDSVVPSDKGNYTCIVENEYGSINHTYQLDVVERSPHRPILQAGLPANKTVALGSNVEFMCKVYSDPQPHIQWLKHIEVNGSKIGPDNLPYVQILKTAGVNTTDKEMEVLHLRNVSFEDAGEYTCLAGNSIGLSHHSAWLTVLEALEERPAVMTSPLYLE
Experimental: as §1, §2, §3

[4] = biological target: T3, FGFR4 Protein, Human, Recombinant (His Tag) (Sino Biological, 10538-H08H) (human, UniProt P22455 22-369); experiment: SPR, 1 umol/L FGFR over immobilized peptide
T3 construct: bought; not shown: His tag
T3 sequence (looked up): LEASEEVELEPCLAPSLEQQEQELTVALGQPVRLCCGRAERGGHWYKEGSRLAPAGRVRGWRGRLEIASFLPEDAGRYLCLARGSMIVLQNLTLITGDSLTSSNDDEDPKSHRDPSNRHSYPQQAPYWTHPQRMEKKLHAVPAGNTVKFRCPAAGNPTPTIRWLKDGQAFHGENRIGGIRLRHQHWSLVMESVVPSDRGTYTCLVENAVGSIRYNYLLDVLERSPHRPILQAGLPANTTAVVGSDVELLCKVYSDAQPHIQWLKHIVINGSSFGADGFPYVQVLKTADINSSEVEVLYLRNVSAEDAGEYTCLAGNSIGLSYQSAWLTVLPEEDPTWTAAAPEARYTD
Experimental: as §1, §2, §3

[5] = biological target: T4, FGFR3 Protein, Human, Recombinant (ECD, His Tag) (Sino Biological, 16044-H08H) (human, UniProt P22607 23-375); experiment: SPR, 1 umol/L FGFR over immobilized peptide
T4 construct: extracellular domain; bought; not shown: His tag
T4 sequence (looked up): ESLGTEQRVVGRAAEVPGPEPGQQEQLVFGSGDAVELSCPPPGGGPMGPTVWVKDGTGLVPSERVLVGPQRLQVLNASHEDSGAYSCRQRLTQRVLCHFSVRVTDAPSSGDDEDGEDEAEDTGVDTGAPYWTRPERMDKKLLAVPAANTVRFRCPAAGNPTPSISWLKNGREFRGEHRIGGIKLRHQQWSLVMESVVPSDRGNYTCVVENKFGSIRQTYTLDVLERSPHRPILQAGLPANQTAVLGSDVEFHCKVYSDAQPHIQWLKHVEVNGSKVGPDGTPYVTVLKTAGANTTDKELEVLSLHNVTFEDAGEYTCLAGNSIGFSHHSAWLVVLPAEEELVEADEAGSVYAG
Experimental: as §1, §2, §3

[6] = biological target: T5, Recombinant Human FGFR2 alpha (IIIc) Fc Chimera Protein, CF (R&D systems, 712-FR-050) (human, UniProt P21802 22-377); experiment: SPR, 10 nmol/L peptide over immobilized FGFR2-Fc
T5 construct: bought; not shown: Fc part of the chimera
T5 sequence (P21802 22-377, change not shown): as the sequence (P21802 22-377 limits assumed) above
Experimental: A CM5 sensor chip (Cytiva, 29149603) was set in Biacore-T200 (manufactured by Cytiva) which is a surface plasmon resonance device, and an HBS-EP buffer (Cytiva, BR100826) was added as a running buffer at a flow rate of 10 μL/min to equilibrate the flow channel. Next, 70 μL of a mixed aqueous solution of 0.2 mol/L 1-(3-dimethylaminopropyl)-3-ethylcarbodiimide (EDC) and 0.05 mol/L N-hydroxysuccinimide (NHS) was added to activate the sensor chip. Then, Recombinant Human FGFR2 alpha (IIIc) Fc Chimera Protein CF (R&D systems, 712-FR-050) prepared at 50 nmol/L in an Acetate 4.5 buffer (Cytiva, BR100350) was added thereto to perform immobilization at about 5000 RU. Thereafter, the blocking treatment was performed with an ethanolamine solution. In addition, in another flow channel of the same sensor chip, blocking treatment was performed immediately after activation without immobilizing FGFR.
A cyclic peptide diluted to 10 nmol/L using HBS-EP was added to each flow channel of the FGFR-immobilized sensor chip produced above at 25° C. for 10 minutes, then HBS-EP was allowed to flow as a running buffer for 30 minutes, and the binding of the cyclic peptide to FGFR was measured. Thereafter, a regeneration treatment of removing the bound cyclic peptide was performed by repeating the flow of a regeneration liquid in which sodium chloride powder was dissolved in Glysine 1.5 (Cytiva, BR100354) to a final concentration of 0.15 mol/L for 1 minute in each flow channel twice. The binding amount of the cyclic peptide was evaluated from the difference between the measured value of Biacore-T200 in the flow channel in which FGFR was immobilized and the measured value of Biacore-T200 in the flow channel in which FGFR was not immobilated, in a case where a 10 nmol/L cyclic peptide was allowed to flow.

Q-(C)-PQNFINPVQWRYFQHY-(K(acetyl))-NK (QCPQNFINPVQWRYFQHYK(COCH2)NKQCPQNFINPVQWRYFQHYK(COCH2)NK; thioether 2-19, 23-40; not fully specified (N-terminus, bridges); also: Bis-NHS-PEG9 crosslink, dimer of two 21-mers) [SEQ ID NO: 458, cyclic peptide complex; N-terminal acetylation, crosslinking between side chain amino groups of K via Bis-NHS-PEG9]
bovine myoblast proliferation action (bovine myoblasts): about 40%

Y-(Hcy)-EENYLDPEQYQYFIYF-(K(acetyl))-YKKK (YXEENYLDPEQYQYFIYFKYKKK; homocysteine, acetyl-lysine; Description of Artificial Sequence: Cyclic peptide) [SEQ ID NO: 442]
residual rate of the cyclic peptide [1]: 61%

YCEENYLDPEQYQYFIYFK(COCH2)YKKK (thioether 2-19, chemically synthesized) [cyclic peptide SEQ ID NO: 450]
binding amount (SPR, FGFR molecules bound per cyclic peptide molecule) [2]: ≥ 0.05 moleculesoffgfr/onemoleculeofthecyclicpeptide | binding amount (SPR, FGFR molecules bound per cyclic peptide molecule) [3]: 0.01 to 0.05 moleculesoffgfr/onemoleculeofthecyclicpeptide | binding amount (SPR, FGFR molecules bound per cyclic peptide molecule) [4]: 0.01 to 0.05 moleculesoffgfr/onemoleculeofthecyclicpeptide | binding amount (SPR, FGFR molecules bound per cyclic peptide molecule) [5]: 0.01 to 0.05 moleculesoffgfr/onemoleculeofthecyclicpeptide | binding amount (SPR, cyclic peptide molecules bound per FGFR molecule at 10 nmol/L peptide) [6]: ≥ 0.7 moleculesofthecyclicpeptide/onemoleculeoffgfr
